Measured values: paper PMC7699647, “Nucleocapsid protein of SARS-CoV-2 phase separates into RNA-rich polymerase-containing condensates”

Target: nsp12;nsp7;nsp8 (SARS-CoV-2;SARS-CoV-2;SARS-CoV-2, UniProt P0DTD1;P0DTD1;P0DTD1 4393-5324;3860-3942;3943-4140, ||)
Test: size exclusion chromatography; 20 mM Na-HEPES pH 7.4, 100 mM NaCl, 1 mM MgCl2, 1 mM TCEP; NMR: 50 mM NaP, 0.01% NaN3, 5% D2O, 5 C; phase separation: 20 mM NaPi pH 7.5
Conditions: protein: recombinant;recombinant;recombinant; tags: 6xHis-MBP removed by TEV;His tag removed by TEV;His tag removed by TEV; copies: 1;1;2; label: 5' 6-FAM on strand 2; 5' overhang 11 nt on strand 1; other end blunt

B1: RdRp RNA scaffold (minimal RNA hairpin) (dsRNA)
RNA 1: UUUUCAUGCAUCGCGUAGGCUCAUACCGUAUUGAGA
RNA 2: UCUCAAUACGGUAUGAGCCUACGCG
  binding result: binds
